Experiments:
[1] = 48 h-hydrolysis of plasma by sPLA2s at IC50 concentrations (NEFA); format: biochemical, human; conditions: GX 3 nM, GIIF full length or truncated 15 nM, bee venom 15 pM; 37° C.
Procedure: Crude human plasma was incubated with 3 nM of recombinant human GX sPLA2 (⋄), 15 nM of the full length (▪) or truncated (□) recombinant human GIIF sPLA2, and 15 pM of the bee venom sPLA2 (♦), for 48 h at 37° C. Aliquots were taken at times 0 h, 6 h, 22 h, 30 h and 48 h of incubation. NEFAs in each aliquot were measured using the NEFA-C kit (WAKO);
Crude human plasma was incubated with 3 nM of recombinant human GX sPLA2, 15 nM of the full length or the truncated form (IIFΔC) of recombinant human GIIF sPLA2, and 15 pM of the bee venom sPLA2, for 48 h at 37° C. Aliquots (7 μL) were taken at times 0 h, 6 h, 22 h, 30 h and 48 h of incubation. NEFAs were measured in each aliquot by using the NEFA-C kit (WAKO). Experiment was repeated twice with different plasmas.

[2] = tested on: P. falciparum-infected erythrocytes; experiment: GX sPLA2 lipolysis of infected red blood cells, young and mature stages (NEFA); format: cell-based, human; conditions: no serum, 5 h at 37° C.
Procedure: A semi-synchronous culture of P. falciparum (2.5% parasitaemia) was analysed for sensitivity to GX sPLA2 at early and late development stages. Parasitaemia and stage distribution were determined from Diff-Quick-stained smears. Early stages were processed at t 0 h and late stages were processed 24 h later (t 24 h). Cultures were washed and cells were re-suspended at 50% haematocrit in RPMI 0.05% BSA, and then distributed into wells of a 96-well microplate in the presence or absence of respectively 30.0 nM of GX sPLA2 and 0.2 nM of bee venom sPLA2. Non-infected erythrocytes and human serum were processed similarly, after all samples had been adjusted for same phosphatidylcholine (PC) content. […] NEFAs in each sample were measured in triplicate using the NEFA-C kit (WAKO). […]
A parasite culture was enriched in young parasite stages (rings+early trophozoites) by sorbitol treatment. Parasitaemia (2.5-3%) and stage distribution were determined from Diff-Quick staining of culture smears. […] NEFAs in erythrocyte samples are expressed as the sum of NEFAs from ghosts and corresponding supernatant.
The membranolytic activity of the recombinant GX sPLA2 on RBCs infected by either young (ring/young trophozoite) or mature (late trophozoite/schizont) parasites was analysed. […] Parasite cultures were incubated with GX sPLA2 in the absence of serum for 5 h and NEFA production was measured thereafter. […]

[3] = Specific activities of sPLA2s on human plasma (NEFA release, NEFA-C kit); format: biochemical
Procedure: Kinetic analysis of human plasma hydrolysis by sPLA2s was performed by mixing on ice 50 μL of crude plasma with recombinant sPLA2s at various final concentrations (respectively 2×, 5× and 10× the IC50 value). At time zero, the mixture was transferred to 37° C. Samples (7 μL) were taken after 5, 15, 30 and 60 minutes of incubation and quickly frozen at −20° C. An aliquot of plasma without enzyme was similarly processed. Concentration of non-esterified fatty acids (NEFAs) in each sample was measured by a discontinuous enzymatic method using the NEFA-C test kit from WAKO, following manufacturer's instructions. The amount of NEFAs in each enzyme-containing plasma sample was subtracted for NEFAs in enzyme-free plasma sample. Specific activity for each of the sPLA2s was determined from the linear part of the curve [NEFA]=f(t). Experiment was repeated three times with plasmas from different donors and different batches of sPLA2s.
Specific activities of sPLA2s on human plasma. Hydrolysis of plasma phospholipids by human and venom sPLA2s was assayed using different incubation times and enzymes concentrations. Hydrolysis was assessed by measuring the amount of NEFAs in samples using the colorimetric assay developed by WAKO (NEFA-C kit). Enzymatic production of NEFAs was corrected for endogenous production of NEFAs measured in the absence of sPLA2. Specific activity for each of the sPLA2s was determined from the linear part of the kinetic curve. Values are the mean of three independent experiments. SD: standard deviation. Anti-P. falciparum activities (IC50) of the respective sPLA2s are given for comparison.

B1: X: recombinant human group X secreted phospholipase A2 (protein, UniProt O15496 43-165, looked up)
Group 10 secretory …: GILELAGTVGCVGPRTPIAYMKYGCFCGLGGHGQPRDAIDWCCHGHDCCYTRAEEAGCSPKTERYSWQCVNQSVLCGPAENKCQELLCKCDQEIANCLAQTEYNLKYLFYPQFLCEPDSPKCD
[1]
  hydrolysis of plasma over 48 h: the most active
[2]; 30 nM
  membranolytic activity on healthy (non-infected) erythrocytes: left intact
[2]; GX 30 nM, bee venom 0.2 nM
  membranolytic activity on parasite culture erythrocytes (NEFA release, words): induced the release of NEFAs from the parasite culture with predominance for the schizont stages
[3]; ratio of specific activities
  activity on plasma relative to GIIF sPLA2: 9 times
  activity on plasma relative to GV sPLA2: 30 times
[3]; whole human plasma, 37° C., linear part of kinetic curve, mean of three experiments
  Specific activity ± SD (μmol NEFA/min × mg enzyme): 8.23 ± 0.92 μmol NEFA/min × mg enzyme

From US8709741B2, “Methods of diagnosing a plasmodium infection” (priority 2009, dated 2014)
